Measured values reported in patent US20260176314.

T1: FLAG_SERPINB14_HiBiT
T1 chain: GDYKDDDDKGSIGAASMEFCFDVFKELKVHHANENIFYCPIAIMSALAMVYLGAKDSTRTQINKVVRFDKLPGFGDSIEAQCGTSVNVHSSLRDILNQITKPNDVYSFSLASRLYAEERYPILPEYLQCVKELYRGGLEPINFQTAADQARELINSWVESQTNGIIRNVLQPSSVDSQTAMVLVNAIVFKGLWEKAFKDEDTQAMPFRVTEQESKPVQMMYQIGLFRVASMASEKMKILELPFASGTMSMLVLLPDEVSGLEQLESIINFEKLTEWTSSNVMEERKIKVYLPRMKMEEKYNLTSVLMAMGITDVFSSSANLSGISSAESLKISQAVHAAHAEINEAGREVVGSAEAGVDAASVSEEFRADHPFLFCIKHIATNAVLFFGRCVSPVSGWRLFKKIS

B1: ScMNN2(M1-S150)_Fam20c(R32-R584)_FLAG (protein)
chain: MLLTKRFSKLFKLTFIVLILCGLFVITNKYMDENTSVKEYKEYLDRYVQSYSNKYSSSSDAASADDSTPLRDNDEAGNEKLKSFYNNVFNFLMVDSPKGSTAKQYNEACLLKGDIGDRPDHYKDLYKLSAKELSKCLELSPDEVASLTKSRLERRGARPSGEPGCSCAQPAAEVAAPGWAQVRGRPGEPPAASSAAGDAGWPNKHTLRILQDFSSDPSSNLSSHSLEKLPPAAEPAERALRGRDPGALRPHDPAHRPLLRDPGPRRSESPPGPGGDASLLARLFEHPLYRVAVPPLTEEDVLFNVNSDTRLSPKAAENPDWPHAGAEGAEFLSPGEAAVDSYPNWLKFHIGINRYELYSRHNPAIEALLHDLSSQRITSVAMKSGGTQLKLIMTFQNYGQALFKPMKQTREQETPPDFFYFSDYERHNAEIAAFHLDRILDFRRVPPVAGRMVNMTKEIRDVTRDKKLWRTFFISPANNICFYGECSYYCSTEHALCGKPDQIEGSLAAFLPDLSLAKRKTWRNPWRRSYHKRKKAEWEVDPDYCEEVKQTPPYDSSHRILDVMDMTIFDFLMGNMDRHHYETFEKFGNETFIIHLDNGRGFGKYSHDELSILVPLQQCCRIRKSTYLRLQLLAKEEYKLSLLMAESLRGDQVAPVLYQPHLEALDRRLRVVLKAVRDCVERNGLHSVVDDDLDTEHRAASARDYKDDDDK
B2: ScKRE(M1-I58)_Fam20c(R32-R584)_FLAG (protein)
chain: MALFLSKRLLRFTVIAGAVIVLLLTLNSNSRTQQYIPSSISAAFDFTSGSISPEQQVIRLERRGARPSGEPGCSCAQPAAEVAAPGWAQVRGRPGEPPAASSAAGDAGWPNKHTLRILQDFSSDPSSNLSSHSLEKLPPAAEPAERALRGRDPGALRPHDPAHRPLLRDPGPRRSESPPGPGGDASLLARLFEHPLYRVAVPPLTEEDVLFNVNSDTRLSPKAAENPDWPHAGAEGAEFLSPGEAAVDSYPNWLKFHIGINRYELYSRHNPAIEALLHDLSSQRITSVAMKSGGTQLKLIMTFQNYGQALFKPMKQTREQETPPDFFYFSDYERHNAEIAAFHLDRILDFRRVPPVAGRMVNMTKEIRDVTRDKKLWRTFFISPANNICFYGECSYYCSTEHALCGKPDQIEGSLAAFLPDLSLAKRKTWRNPWRRSYHKRKKAEWEVDPDYCEEVKQTPPYDSSHRILDVMDMTIFDFLMGNMDRHHYETFEKFGNETFIIHLDNGRGFGKYSHDELSILVPLQQCCRIRKSTYLRLQLLAKEEYKLSLLMAESLRGDQVAPVLYQPHLEALDRRLRVVLKAVRDCVERNGLHSVVDDDLDTEHRAASARDYKDDDDK
B3: ScMNN1(M1-A42)_Fam20c(D93-R584)_FLAG (protein)
chain: MLALRRFILNQRSLRSCTIPILVGALIIILVLFQLVTHRNDADFSSDPSSNLSSHSLEKLPPAAEPAERALRGRDPGALRPHDPAHRPLLRDPGPRRSESPPGPGGDASLLARLFEHPLYRVAVPPLTEEDVLFNVNSDTRLSPKAAENPDWPHAGAEGAEFLSPGEAAVDSYPNWLKFHIGINRYELYSRHNPAIEALLHDLSSQRITSVAMKSGGTQLKLIMTFQNYGQALFKPMKQTREQETPPDFFYFSDYERHNAEIAAFHLDRILDFRRVPPVAGRMVNMTKEIRDVTRDKKLWRTFFISPANNICFYGECSYYCSTEHALCGKPDQIEGSLAAFLPDLSLAKRKTWRNPWRRSYHKRKKAEWEVDPDYCEEVKQTPPYDSSHRILDVMDMTIFDFLMGNMDRHHYETFEKFGNETFIIHLDNGRGFGKYSHDELSILVPLQQCCRIRKSTYLRLQLLAKEEYKLSLLMAESLRGDQVAPVLYQPHLEALDRRLRVVLKAVRDCVERNGLHSVVDDDLDTEHRAASARDYKDDDDK
B4: ScMNN2(M1-S36)_Fam20c(R32-R584)_FLAG (protein)
chain: MLLTKRFSKLFKLTFIVLILCGLFVITNKYMDENTSRLERRGARPSGEPGCSCAQPAAEVAAPGWAQVRGRPGEPPAASSAAGDAGWPNKHTLRILQDFSSDPSSNLSSHSLEKLPPAAEPAERALRGRDPGALRPHDPAHRPLLRDPGPRRSESPPGPGGDASLLARLFEHPLYRVAVPPLTEEDVLFNVNSDTRLSPKAAENPDWPHAGAEGAEFLSPGEAAVDSYPNWLKFHIGINRYELYSRHNPAIEALLHDLSSQRITSVAMKSGGTQLKLIMTFQNYGQALFKPMKQTREQETPPDFFYFSDYERHNAEIAAFHLDRILDFRRVPPVAGRMVNMTKEIRDVTRDKKLWRTFFISPANNICFYGECSYYCSTEHALCGKPDQIEGSLAAFLPDLSLAKRKTWRNPWRRSYHKRKKAEWEVDPDYCEEVKQTPPYDSSHRILDVMDMTIFDFLMGNMDRHHYETFEKFGNETFIIHLDNGRGFGKYSHDELSILVPLQQCCRIRKSTYLRLQLLAKEEYKLSLLMAESLRGDQVAPVLYQPHLEALDRRLRVVLKAVRDCVERNGLHSVVDDDLDTEHRAASARDYKDDDDK
B5: ScMNN6(M1-P30)_Fam20c(R32-R584)_FLAG (protein)
chain: RLERRGARPSGEPGCSCAQPAAEVAAPGWAQVRGRPGEPPAASSAAGDAGWPNKHTLRILQDFSSDPSSNLSSHSLEKLPPAAEPAERALRGRDPGALRPHDPAHRPLLRDPGPRRSESPPGPGGDASLLARLFEHPLYRVAVPPLTEEDVLFNVNSDTRLSPKAAENPDWPHAGAEGAEFLSPGEAAVDSYPNWLKFHIGINRYELYSRHNPAIEALLHDLSSQRITSVAMKSGGTQLKLIMTFQNYGQALFKPMKQTREQETPPDFFYFSDYERHNAEIAAFHLDRILDFRRVPPVAGRMVNMTKEIRDVTRDKKLWRTFFISPANNICFYGECSYYCSTEHALCGKPDQIEGSLAAFLPDLSLAKRKTWRNPWRRSYHKRKKAEWEVDPDYCEEVKQTPPYDSSHRILDVMDMTIFDFLMGNMDRHHYETFEKFGNETFIIHLDNGRGFGKYSHDELSILVPLQQCCRIRKSTYLRLQLLAKEEYKLSLLMAESLRGDQVAPVLYQPHLEALDRRLRVVLKAVRDCVERNGLHSVVDDDLDTEHRAASARDYKDDDDK
B6: Fam20c(M1-R584)_MYC (protein)
chain: MKMMLVRRFRVLILMVFLVACALHIALDLLPRLERRGARPSGEPGCSCAQPAAEVAAPGWAQVRGRPGEPPAASSAAGDAGWPNKHTLRILQDFSSDPSSNLSSHSLEKLPPAAEPAERALRGRDPGALRPHDPAHRPLLRDPGPRRSESPPGPGGDASLLARLFEHPLYRVAVPPLTEEDVLFNVNSDTRLSPKAAENPDWPHAGAEGAEFLSPGEAAVDSYPNWLKFHIGINRYELYSRHNPAIEALLHDLSSQRITSVAMKSGGTQLKLIMTFQNYGQALFKPMKQTREQETPPDFFYFSDYERHNAEIAAFHLDRILDFRRVPPVAGRMVNMTKEIRDVTRDKKLWRTFFISPANNICFYGECSYYCSTEHALCGKPDQIEGSLAAFLPDLSLAKRKTWRNPWRRSYHKRKKAEWEVDPDYCEEVKQTPPYDSSHRILDVMDMTIFDFLMGNMDRHHYETFEKFGNETFIIHLDNGRGFGKYSHDELSILVPLQQCCRIRKSTYLRLQLLAKEEYKLSLLMAESLRGDQVAPVLYQPHLEALDRRLRVVLKAVRDCVERNGLHSVVDDDLDTEHRAASAREQKLISEEDL
B7: ScKRE2(M1-S80)_Fam20c(D93-R584)_FLAG (protein)
chain: MALFLSKRLLRFTVIAGAVIVLLLTLNSNSRTQQYIPSSISAAFDFTSGSISPEQQVISEENDAKKLEQSALNSEASEDSDFSSDPSSNLSSHSLEKLPPAAEPAERALRGRDPGALRPHDPAHRPLLRDPGPRRSESPPGPGGDASLLARLFEHPLYRVAVPPLTEEDVLFNVNSDTRLSPKAAENPDWPHAGAEGAEFLSPGEAAVDSYPNWLKFHIGINRYELYSRHNPAIEALLHDLSSQRITSVAMKSGGTQLKLIMTFQNYGQALFKPMKQTREQETPPDFFYFSDYERHNAEIAAFHLDRILDFRRVPPVAGRMVNMTKEIRDVTRDKKLWRTFFISPANNICFYGECSYYCSTEHALCGKPDQIEGSLAAFLPDLSLAKRKTWRNPWRRSYHKRKKAEWEVDPDYCEEVKQTPPYDSSHRILDVMDMTIFDFLMGNMDRHHYETFEKFGNETFIIHLDNGRGFGKYSHDELSILVPLQQCCRIRKSTYLRLQLLAKEEYKLSLLMAESLRGDQVAPVLYQPHLEALDRRLRVVLKAVRDCVERNGLHSVVDDDLDTEHRAASARDYKDDDDK
B8: ScMNN2(M1-P97)_Fam20c(R32-R584)_FLAG (protein)
chain: MLLTKRFSKLFKLTFIVLILCGLFVITNKYMDENTSVKEYKEYLDRYVQSYSNKYSSSSDAASADDSTPLRDNDEAGNEKLKSFYNNVFNFLMVDSPRLERRGARPSGEPGCSCAQPAAEVAAPGWAQVRGRPGEPPAASSAAGDAGWPNKHTLRILQDFSSDPSSNLSSHSLEKLPPAAEPAERALRGRDPGALRPHDPAHRPLLRDPGPRRSESPPGPGGDASLLARLFEHPLYRVAVPPLTEEDVLFNVNSDTRLSPKAAENPDWPHAGAEGAEFLSPGEAAVDSYPNWLKFHIGINRYELYSRHNPAIEALLHDLSSQRITSVAMKSGGTQLKLIMTFQNYGQALFKPMKQTREQETPPDFFYFSDYERHNAEIAAFHLDRILDFRRVPPVAGRMVNMTKEIRDVTRDKKLWRTFFISPANNICFYGECSYYCSTEHALCGKPDQIEGSLAAFLPDLSLAKRKTWRNPWRRSYHKRKKAEWEVDPDYCEEVKQTPPYDSSHRILDVMDMTIFDFLMGNMDRHHYETFEKFGNETFIIHLDNGRGFGKYSHDELSILVPLQQCCRIRKSTYLRLQLLAKEEYKLSLLMAESLRGDQVAPVLYQPHLEALDRRLRVVLKAVRDCVERNGLHSVVDDDLDTEHRAASARDYKDDDDK

Target: FLAG_TRX_SPP1 (G158-N314)_HiBiT
Sequence (chain, as listed by the source): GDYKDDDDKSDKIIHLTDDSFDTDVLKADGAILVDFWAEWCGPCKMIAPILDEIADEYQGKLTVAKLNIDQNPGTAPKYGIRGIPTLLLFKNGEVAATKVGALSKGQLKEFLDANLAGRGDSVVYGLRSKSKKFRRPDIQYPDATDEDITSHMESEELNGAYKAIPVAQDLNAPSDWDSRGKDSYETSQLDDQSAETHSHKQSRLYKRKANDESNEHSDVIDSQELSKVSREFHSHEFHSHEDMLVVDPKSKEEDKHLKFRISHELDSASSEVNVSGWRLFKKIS

| Protein | Phosphorylation |
| --- | --- |
| B1 | Yes |
| B2 | Yes |
| B3 | Yes |
| B4 | Yes |
| B5 | Yes |
| B6 | Yes |
| B7 | Yes |
| B8 | Yes |

Target: T1, FLAG_SERPINB14_HiBiT

| Protein | phosphorylation sites detected by LC-MS/MS after co-expression in Pichia pastoris |
| --- | --- |
| B6 | S69, T76, T92, S99, S165, T202, S206, and S345 |
